According to PMC6265327:

Target: CMG assembled in vitro on roadblocked linear DNA from loaded MCM double hexamers and purified firing factors (yeast (strains based on W303)) (UniProt Q08032)
Experiment: negative-stain EM with 2D classification; origin activation reconstituted with purified yeast proteins on bead-tethered linear DNA capped by covalent protein roadblocks; eluted by DNA digestion at a single site; particles counted in 2D class averages

- percent of isolated (not train-incorporated) CMG particles bound by Pol epsilon: 2%
Substance: Pol epsilon used in the reconstituted origin activation (MCM train) reactions, P21951 1-2222; P24482 1-689; P27344 1-201; Q04603 1-196
